Measurements taken from patent US20250276092A1 (Regeneron, published 2025).

B1: 30027P2 (antibody, human IgG4 S228P, kappa, V domains shown)
VH: EVQLVESGGGLVQPGGSLRLSCAASGFTFSSYAMNWVRQAPGKGLEWVSIISGTIGKTYYADSVKGRFTISRDNSKNTLYLQMNSLRGEDTAVYYCAKDTERDITGSPFDYWGQGTLVTVSS
VL: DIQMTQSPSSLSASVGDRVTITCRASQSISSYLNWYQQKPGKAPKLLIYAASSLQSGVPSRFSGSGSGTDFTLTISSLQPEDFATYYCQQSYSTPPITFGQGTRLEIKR
notes: Parental bivalent anti-CD40 mAb; also called H4sH30027P2
B2: 21520P2 (antibody, human IgG4 S228P, kappa, V domains shown)
VH: EVQLVESGGGLVQPGGSLRLSCAASGFTFGSYGMAWVRQAPGKGLEWVSAISGSGDYTNYADSVKRRFTISRDNSKNTLYLQMSSLRAEDTAVYYCAKEKTGTTGYLYSGMDVWGQGTTVTVSS
VL: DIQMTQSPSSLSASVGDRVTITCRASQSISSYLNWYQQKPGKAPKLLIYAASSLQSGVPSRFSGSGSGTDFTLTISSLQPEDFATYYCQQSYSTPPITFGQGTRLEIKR
notes: Parental bivalent anti-CD40 mAb; also called H4sH21520P2
B3: REGN16431 (bispecific antibody, human IgG4 S228P, kappa)
heavy 1: QLQLQESGPGLVRPSETLSLTCSVSGASMNTNNYYWGWIRQPPGKGLEWIGSGYYNGNTYYNPSLKSRVTISVDTSKNQFSLKLNSVTAADTAVYYCARQTPPRIIGSPNIWGQGTMVTVSSASTKGPSVFPLAPCSRSTSESTAALGCLVKDYFPEPVTVSWNSGALTSGVHTFPAVLQSSGLYSLSSVVTVPSSSLGTKTYTCNVDHKPSNTKVDKRVESKYGPPCPPCPAPPVAGPSVFLFPPKPKDTLMISRTPEVTCVVVDVSQEDPEVQFNWYVDGVEVHNAKTKPREEQFNSTYRVVSVLTVLHQDWLNGKEYKCKVSNKGLPSSIEKTISKAKGQPREPQVYTLPPSQEEMTKNQVSLTCLVKGFYPSDIAVEWESNGQPENNYKTTPPVLDSDGSFFLYSRLTVDKSRWQEGNVFSCSVMHEALHNHYTQKSLSLSLGK
heavy 2: EVQLVESGGGLVQPGGSLRLSCAASGFTFGSYGMAWVRQAPGKGLEWVSAISGSGDYTNYADSVKRRFTISRDNSKNTLYLQMSSLRAEDTAVYYCAKEKTGTTGYLYSGMDVWGQGTTVTVSSASTKGPSVFPLAPCSRSTSESTAALGCLVKDYFPEPVTVSWNSGALTSGVHTFPAVLQSSGLYSLSSVVTVPSSSLGTKTYTCNVDHKPSNTKVDKRVESKYGPPCPPCPAPPVAGPSVFLFPPKPKDTLMISRTPEVTCVVVDVSQEDPEVQFNWYVDGVEVHNAKTKPREEQFNSTYRVVSVLTVLHQDWLNGKEYKCKVSNKGLPSSIEKTISKAKGQPREPQVYTLPPSQEEMTKNQVSLTCLVKGFYPSDIAVEWESNGQPENNYKTTPPVLDSDGSFFLYSRLTVDKSRWQEGNVFSCSVMHEALHNRFTQKSLSLSPGK
light: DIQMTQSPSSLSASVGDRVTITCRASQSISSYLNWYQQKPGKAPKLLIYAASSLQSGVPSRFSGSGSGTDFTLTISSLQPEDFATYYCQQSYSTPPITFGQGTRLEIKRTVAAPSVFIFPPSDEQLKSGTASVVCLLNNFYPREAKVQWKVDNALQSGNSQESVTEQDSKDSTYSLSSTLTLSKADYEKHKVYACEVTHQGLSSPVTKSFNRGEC
B4: REGN16432 (bispecific antibody, human IgG4 S228P, kappa)
heavy 1: EVQLVESGGGLVQPGGSLRLSCAASGFTFSSYAMNWVRQAPGKGLEWVSIISGTIGKTYYADSVKGRFTISRDNSKNTLYLQMNSLRGEDTAVYYCAKDTERDITGSPFDYWGQGTLVTVSSASTKGPSVFPLAPCSRSTSESTAALGCLVKDYFPEPVTVSWNSGALTSGVHTFPAVLQSSGLYSLSSVVTVPSSSLGTKTYTCNVDHKPSNTKVDKRVESKYGPPCPPCPAPPVAGPSVFLFPPKPKDTLMISRTPEVTCVVVDVSQEDPEVQFNWYVDGVEVHNAKTKPREEQFNSTYRVVSVLTVLHQDWLNGKEYKCKVSNKGLPSSIEKTISKAKGQPREPQVYTLPPSQEEMTKNQVSLTCLVKGFYPSDIAVEWESNGQPENNYKTTPPVLDSDGSFFLYSRLTVDKSRWQEGNVFSCSVMHEALHNHYTQKSLSLSLGK
heavy 2: B3 heavy 2
light: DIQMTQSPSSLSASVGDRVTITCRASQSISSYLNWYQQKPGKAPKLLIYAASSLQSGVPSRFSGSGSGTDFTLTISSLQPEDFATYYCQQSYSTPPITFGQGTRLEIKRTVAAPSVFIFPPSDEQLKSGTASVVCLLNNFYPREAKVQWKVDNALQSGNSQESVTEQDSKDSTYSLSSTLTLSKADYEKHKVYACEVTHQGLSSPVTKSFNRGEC

Tests used:
[1] = molecular target: T1, human CD40 expressed on cells (human, UniProt P25942 21-277); assay: cell-based or functional assay
T1 sequence (P25942 21-277): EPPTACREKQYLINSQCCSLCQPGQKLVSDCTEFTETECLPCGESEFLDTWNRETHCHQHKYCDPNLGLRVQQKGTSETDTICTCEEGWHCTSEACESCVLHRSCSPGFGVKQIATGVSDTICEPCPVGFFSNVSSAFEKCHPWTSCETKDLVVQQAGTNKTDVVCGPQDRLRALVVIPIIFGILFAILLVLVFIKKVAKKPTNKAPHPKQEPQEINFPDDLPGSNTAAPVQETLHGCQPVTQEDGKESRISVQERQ

[2] = molecular target: T1, human CD40 expressed on cells; assay: cell-based or functional assay; remark: listed apart in the source
[3] = molecular target: T1, human CD40 expressed on cells; assay: cell-based or functional assay; remark: listed apart in the source
[4] = molecular target: T2, human CD40 extracellular domain expressed with a C-terminal myc-myc-hexahistidine tag (human); assay: SPR 37C, captured mAb
T2 construct: also called hCD40-MMH; hCD40-mmH
Procedure: (§1) The equilibrium dissociation constants (KD) for anti-CD40 bivalent and bispecific monoclonal antibodies (mAbs) were determined using a real-time surface plasmon resonance (SPR)-based Biacore 4000 biosensor. All binding studies were performed in 10 mM HEPES, 150 mM NaCl, 3 mM EDTA, and 0.05% v/v surfactant Tween-20, pH 7.4 (HBS-ET) running buffer at 25° C. and 37° C. The Biacore CM5 sensor surface was first derivatized by amine coupling with a monoclonal mouse anti-human Fc antibody (REGN2567) to capture anti-CD40 bivalent parental and anti-CD40×CD40 bispecific antibodies. Different concentrations of CD40 reagents, human CD40 extracellular domain expressed with a C-terminal myc-myc-hexahistidine tag (“hCD40-MMH”; REGN3094; SEQ ID NO: 53), monkey CD40 extracellular domain expressed with a C-terminal myc-myc-hexahistidine tag (“mfCD40-MMH”; REGN3097; SEQ ID NO: 54), and mouse CD40 extracellular domain expressed with a C-terminal myc-myc-hexahistidine tag (“mCD40-MMH”; REGN3098; SEQ ID NO: 55), at concentrations ranging from 3.7 nM to 100 nM or 3.3 nM to 90 nM in a series of 3-fold dilutions prepared in HBS-ET running buffer were injected at a flow rate of […] for 4 minutes or […] for 5 minutes. The dissociation of different CD40 reagents bound to anti-CD40 bivalent parental and anti-CD40×CD40 bispecific antibodies was monitored for 10 minutes in HBS-ET running buffer. At the end of each cycle, the anti-CD40 bivalent parental and anti-CD40×CD40 bispecific antibodies capture surface was regenerated using a 12 sec injection of 20 mM H₃PO₄.
(§2) The association rate (ka) and dissociation rate (kd) were determined by fitting the real-time binding sensorgrams to a 1:1 binding model with mass transport limitation using Scrubber 2.0c curve-fitting software. Binding dissociation equilibrium constant (KD) and dissociative half-life (t½) were calculated from the kinetic rates as: KD (M)=kd/kₐ, and t_{1/2} (min)=[ln(2)/(60*kd)].

[5] = molecular target: T3, mouse CD40 extracellular domain expressed with a C-terminal myc-myc-hexahistidine tag (mouse); assay: SPR 37C, captured mAb
T3 construct: also called mCD40-MMH; REGN3098
T3 chain: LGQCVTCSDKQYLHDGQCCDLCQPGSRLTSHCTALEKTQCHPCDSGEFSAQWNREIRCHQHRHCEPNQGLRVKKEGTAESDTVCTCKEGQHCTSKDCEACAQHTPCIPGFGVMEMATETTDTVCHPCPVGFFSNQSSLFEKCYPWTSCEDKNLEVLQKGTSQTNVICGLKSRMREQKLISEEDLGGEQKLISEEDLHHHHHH
Procedure: as §1, §2

[6] = molecular target: T4, monkey CD40 extracellular domain expressed with a C-terminal myc-myc-hexahistidine tag (monkey); assay: SPR 25C, captured mAb
T4 construct: also called mfCD40-MMH; REGN3097
T4 chain: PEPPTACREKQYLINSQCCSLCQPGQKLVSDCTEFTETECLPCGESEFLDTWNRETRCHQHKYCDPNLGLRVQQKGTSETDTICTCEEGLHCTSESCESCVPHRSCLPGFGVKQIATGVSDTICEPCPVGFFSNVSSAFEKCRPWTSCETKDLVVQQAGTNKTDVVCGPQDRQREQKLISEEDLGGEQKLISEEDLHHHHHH
Procedure: as §1, §2

[7] = molecular target: T2, human CD40 extracellular domain …; assay: SPR 25C, captured mAb
Procedure: as §1, §2

[8] = molecular target: T3, mouse CD40 extracellular domain …; assay: SPR 25C, captured mAb
Procedure: as §1, §2

[9] = molecular target: T2, human CD40 extracellular domain …; assay: ELISA, blocks 40 nM hCD40-mmH binding to coated 9His-hCD40L
Procedure: In the blocking assay, 9His-hCD40L was passively absorbed at a concentration of 5 μg/mL in PBS on a 96-well microtiter plate overnight at 4° C. […] In a separate 96-well microtiter plate, a fixed amount of 40 nM hCD40-mmH was pre-mixed with one of the following antibodies, at concentrations ranging from 977 pM to 1 μM in PBS+0.5% BSA: (1) anti-CD40×CD40 bispecific antibodies (REGN16431, REGN16432, REGN16634, and REGN16335); (2) parental anti-CD40 mAbs (bivalent antibodies comprising 2 fragment antigen-binding [Fab] arms identical to one of anti-CD40 Fab of anti-CD40×CD40 antibodies); (3) anti-CD40×Irrelevant antibodies (bivalent antibodies that incorporate one Fab arm identical to one of anti-CD40 Fab of anti-CD40×CD40 antibodies and another Fab arm specific to an irrelevant antigen); and (4) human IgG4 with Fc mutation isotype control antibodies (REGN7540 and REGN4513). The fixed concentration of hCD40-mmH was selected to be near the concentration (EC₅₀ value) that generated 50% of the maximal binding to the plate-adhered 9His-hCD40L. After one-hour incubation, the antibody-antigen complexes were transferred to the microtiter plate coated with 9His-hCD40L. After one hour incubation at room temperature, the plates were washed, and plate-bound hCD40-mmH protein was detected with horseradish peroxidase (HRP) conjugated goat anti-c-Myc antibody. The plates were then developed using TMB substrate solution (BD Biosciences) according to the manufacturer's recommended procedure and the absorbance at 450 nm (OD₄₅₀) was measured on a SpectraMax i3× plate reader.
Binding data were analyzed using a sigmoidal (four-parameter logistic) dose-response model with GraphPad Prism™ software. […] The percent blocking of tested antibodies at the highest tested concentration ([…]) was calculated based on the formula shown below: […]

[10] = molecular target: T1, human CD40 expressed on cells; assay: cell-based or functional assay; remark: listed apart in the source
[11] = molecular target: T1, human CD40 expressed on cells; assay: cell-based or functional assay; remark: listed apart in the source
[12] = molecular target: T1, human CD40 expressed on cells; assay: cell-based or functional assay; remark: listed apart in the source

Binder | Max % activation, NFkB-luc Ramos, no ligand [1] | Max % inhibition, NFkB-luc Ramos, 500 pM hCD40L [1] | Max % activation, NFkB-luc THP-1, no ligand [2] | Max % inhibition, NFkB-luc THP-1, 10 nM hCD40L [2] | IC50, NFkB-luc Raji, 900 pM hCD40L [3] | Max % activation, NFkB-luc Raji, no ligand [3] | Max % inhibition, NFkB-luc Raji, 900 pM hCD40L [3] | 100 nM Ag Bound (RU) [4] | 100 nM Ag Bound (RU) [5] | 100 nM Ag Bound (RU) [6] | 100 nM Ag Bound (RU) [7] | 100 nM Ag Bound (RU) [8] | IC50, NFkB-luc THP-1, 10 nM hCD40L [2] | % Blocking at highest mAb concentration [9] | % max blockade relative to no mAb, IL-6, B cells, donor 1 [10] | % max blockade relative to no mAb, IL-6, B cells, donor 2 [10] | % max blockade relative to no mAb, IL-6, B cells, donor 3 [10] | % max blockade relative to no mAb, IL-10, B cells, donor 1 [11] | % max blockade relative to no mAb, IL-10, B cells, donor 2 [11] | % max blockade relative to no mAb, IL-10, B cells, donor 3 [11] | other results
B1 | 8% | -130% | 2% | -61% | 8.95e-12 M | 9% | 67% | 66.5 RU | 0.2 RU | 63.1 RU | 62 RU | 0.2 RU | – | – | – | – | – | – | – | – | EC50 in the presence of CD40L (potentiation), NFkB-luc Ramos, 500 pM hCD40L [1]: 8.14e-12 M; EC50 in the presence of CD40L (potentiation), NFkB-luc THP-1, 10 nM hCD40L [2]: 0.00251 nM
B2 | 49% | 63% | 1% | 97% | 7.7e-11 M | 25% | 81% | 67.2 RU | 0.2 RU | 10.1 RU | 76.6 RU | -0.5 RU | 0.437 nM | 94% | – | – | – | – | – | – | EC50, NFkB-luc Ramos, no ligand [1]: > 10 nM; IC50 (three highest concentrations excluded, hook effect), NFkB-luc Ramos, 500 pM hCD40L [1]: 8.06e-11 M; EC50, NFkB-luc Raji, no ligand [3]: > 100 nM
B3 | 6% | 90% | 2% | 98% | 1.07e-10 M | 13% | 82% | 61.2 RU | – | – | 61.2 RU | – | 0.287 nM | 93% | 84% | 92.7% | 92.7% | 80.7% | 86.9% | 89.3% | IC50, NFkB-luc Ramos, 500 pM hCD40L [1]: 8.54e-11 M; % max blockade relative to no mAb, TNFa, B cells, donor 1 [12]: 44.7%; % max blockade relative to no mAb, TNFa, B cells, donor 2 [12]: 74.1%; % max blockade relative to no mAb, TNFa, B cells, donor 3 [12]: 70.4%
B4 | 4% | 94% | 6% | 97% | 1.02e-10 M | 5% | 68% | 56.6 RU | – | – | 56.6 RU | – | 0.148 nM | 95% | 83.5% | 92% | 92% | 81.5% | 94.5% | 90.6% | IC50, NFkB-luc Ramos, 500 pM hCD40L [1]: 4.92e-11 M; % max blockade relative to no mAb, TNFa, B cells, donor 1 [12]: 53.5%; % max blockade relative to no mAb, TNFa, B cells, donor 2 [12]: 68.4%; % max blockade relative to no mAb, TNFa, B cells, donor 3 [12]: 69.1%
